The values below come from article PMC5670123, “The structural basis of proton driven zinc transport by ZntB” (Nature Communications, 2017).

This data set deals with the molecule itself. Put plainly: cryo-EM structure; single-particle cryo-EM of DDM-solubilized, purified EcZntB pre-treated with EDTA (apo), ~10 mg/ml, 50 mM Tris/HCl pH 8.0, 250 mM NaCl, 0.03% DDM; overall resolution 4.2 Å.

B1: ZntB from Escherichia coli, full-length (natural protein, UniProt P64423 1-327, looked up)
chain: MEAIKGSDVNVPDAVFAWMLDGRGGVKPLENTDVIDEAHPCWLHLNYVHHDSAQWLATTPLLPNNVRDALAGESTRPRVSRLGEGTLITLRCINGSTDERPDQLVAMRVYMDGRLIVSTRQRKVLALDDVVSDLEEGTGPTDCGGWLVDVCDALTDHSSEFIEQLHDKIIDLEDNLLDQQIPPRGFLALLRKQLIVMRRYMAPQRDVYARLASERLPWMSDDQRRRMQDIADRLGRGLDEIDACIARTGVMADEIAQVMQENLARRTYTMSLMAMVFLPSTFLTGLFGVNLGGIPGGGWQFGFSIFCILLVVLIGGVALWLHRSKWL
notes: Zinc transporter ZntB of Escherichia coli (CorA metal ion transporter family), full-length; Homopentamer in DDM micelles, apo (pre-treated with EDTA); TEV protease (ProTev Plus) is described only for the proteoliposome transport assay, not for the cryo-EM sample; also called EcZntB; source: membrane vesicles solubilized in DDM, purified (Ni2+-sepharose, EDTA treatment, Superdex 200 SEC)
B1: the “stoichiometry N” value worked out at 5.

By stoichiometry N is commonly meant a count of units in the complex or per binding partner.
